US20060128606A1, “Fibrils” (priority 1998, published 2006)
Marks after values point to notes of the source that are not given here. Ends that are not written are not given here.

B1: muscle acylphosphatase: human muscle acylphosphatase protein, forms amyloid fibrils in 25% v/v trifluoroethanol (protein, UniProt P14621 2-99, looked up)
Acylphosphatase-2: STAQSLKSVDYEVFGRVQGVCFRMYTEDEARKIGVVGWVKNTSKGTVTGQVQGPEDKVNSMKSWLSKVGSPSSRIDRTNFSNEKTISKLEYSNFSIRY

How the values were obtained:
Assay type in all cases: physicochemical
[1] = 1D NMR estimate of percentage of peptide visible in solution; conditions: 10 mg/mL in 50% acetonitrile
Procedure: A series of 1D spectra was used to estimate the percentage of peptide visible by solution NMR. These 1D spectra were all acquired with a gain of 7,000 and 256 scans on the same 500 MHz NMR spectrometer, in consecutive experiments. The concentration of a tryptophan solution was calculated from its absorbance at 280 nm. The integration of the indole resonances in these ID spectra from the tryptophan and peptide solutions was used to estimate the concentration of the peptide solutions.
Any small oligomers (whose signals merge with the monomer signal if conformational interconversion takes place on a time scale shorter than that resolvable by this method, i.e. less than ˜100 ms) can only exist as minor populations. […] The remainder must therefore be in large soluble aggregates whose overall tumbling times are too large to give resolvable NMR […].

[2] = Transmission electron microscopy screen for amyloid fibrils (CspB peptides); set-up: key: (++) strongly positive; (+) weakly positive; (0) no positive evidence; conditions: 2.0 mg/mL peptide
Procedure: Fibril formation and morphology were examined by transmission electron microscopy (EM). Peptide samples were dried onto formvar-and carbon-coated grids and negatively stained with 1% phosphotungstic acid (PTA). Grids were examined in a JEOL JEM-1010 electron microscope at 80 kV excitation voltage.
(§1) Analysis by three independent techniques of samples produced by dilution of concentrated solutions of all three peptides (10.0 mg/mL diluted to 2.0 mg/mL final concentration) from 50% to either 10 or 90% acetonitrile was carried out to screen for the presence of amyloid fibrils.
(§2) Aggregated states of all three peptides produced in 10 and 90% acetonitrile were analysed using these techniques.

[3] = β-sheet content from CD ellipticity at 215 nm; conditions: 0.4 mg/mL
Procedure: CD spectra were recorded on a Jasco J720 spectropolarimeter using quartz cuvettes of 1 mm pathlength, at 1 nm intervals from 195 to 250 nm. Routinely, CD samples were examined 30 min after dilution from the peptide stock solution containing 50% acetonitrile.
Calculation of the β-sheet content was carried out using the ellipticity at 215 nm normalized to a per residue basis (units: deg cm^2/dmol).

[4] = Hydrodynamic radii by NMR diffusion measurements (pulse field gradient); conditions: 10 mg/mL peptide in 50% acetonitrile
Procedure: All NMR spectra were acquired at ^1H frequencies of 500 or 600 MHz on homebuilt NMR spectrometers at the Oxford Centre for Molecular Sciences. One dimensional (1D) spectra typically contain 8K complex data points. Two dimensional (2D) experiments were acquired with 2K complex data points in the t2 dimension, and in phase-sensitive mode using time proportional phase incrementation (TPPI) for quadrature detection in t1. Diffusion constants were determined using pulse field gradient experiments with 8K complex points. Spectral widths of 8,000 Hz were used for all experiments. […] The water signal was suppressed either by using presaturation during the 1.2 s relaxation delay or by using a gradient double echo. […] Data were processed using Felix 2.3 (BIOSYM) on Sun workstations. Typically, the data were zero filled once, and processed with a double exponential window function for the 1D, and a sinebell squared function, shifted over 90° for each dimension of the 2D spectra. All spectra were referenced to an internal standard of dioxan at 3,743 ppm.

[5] = Light microscopy of congo red stained precipitates, green birefringence (CspB peptides); set-up: key: (++) strongly positive; (+) weakly positive; (0) no positive evidence; conditions: 2.0 mg/mL peptide
Procedure: Yellow green birefringence indicates the presence of cross […].
as §1, §2

[6] = Congo red binding assay of amyloid fibril formation (CspB peptides); set-up: key: (++) strongly positive; (+) weakly positive; (0) no positive evidence
Procedure: For the congo red binding assay of fibril formation, absorption spectra of a 10 μM solution of the dye in the assay buffer (5 mM phosphate pH 7.41 […]) before and after addition of the peptide solution were recorded on a Perkin Elmer (Foster City, Calif.) Lambda 16 spectrometer in the range of 400 to 700 nm.
Analysis by three independent techniques of samples produced by dilution of concentrated solutions of all three peptides ([…]) from 50% to either 10 or 90% acetonitrile was carried out to screen for the presence of amyloid fibrils.
as §2

[7] = Solubility in aqueous buffer or acetonitrile cosolvent; conditions: aqueous buffer; aqueous buffers, pH 6.0 to 7.2, no cosolvent; read-out: Solubility under similar conditions (aqueous buffers)
Procedure: In contrast, none of the three peptides are soluble under similar conditions to any significant extent; CspB-2, for example, dissolves only to ˜0.2 mg/mL. To solubilize the peptides, acetonitrile was used as a cosolvent at pH 4.0 (formic acid, unbuffered). […] A standardized set of combinations of peptide concentration and solvent composition was used, involving peptide concentrations of 0.4, 2 and 10 mg/mL, and acetonitrile concentrations of 10, 50 and 90%.

[8] = Congo Red absorption and birefringence of muscle acylphosphatase aggregate
Procedure: (§3) Muscle acylphosphatase was purified as previously reported (A. Modesti et al. (1995) Protein Express Purif. 6, 799) and incubated at a concentration of 0.375 mg/ml (34 μM) in 25% v/v trifluoroethanol (TFE), acetate buffer, pH 5.5 at 25° C. under constant stirring. Aliquots were withdrawn at regular time intervals for electron microscopy and spectroscopic analysis. Circular dichroism spectra were acquired directly by means of a Jasco J-720 spectropolarimeter and cuvettes of 1 mm path length. Electron micrographs were acquired by a JEM 1010 transmission electron microscope at 80 kV excitation voltage. A 3 μL sample of protein solution was placed and dried for five minutes on a Formvar and carbon-coated grid. The sample was then stained with 3 μL 1% phosphotungstic acid solution and observed at magnifications of 25-100k.
(§4) Thioflavin T and Congo Red assays were performed according to Le Vine III (H. Le Vine III (1995) Amyloid: Int. J. Exp. Clin. Invest. 2,1.) and Klunk (W. E. Klunk et al. (1989) J. Histochem. Cytochem. 37, 1293), respectively. For Congo Red birefringence experiments aliquots of protein were air dried onto glass slides. The resulting films were stained with a saturated solution of Congo red and sodium chloride, corrected to pH 10.0 with 1% sodium hydroxide. The stained slides were examined by an optical microscope between crossed polarizers.

[9] = Thioflavin T assay of muscle acylphosphatase aggregate; conditions: aggregate after two weeks in 25% v/v TFE, pH 5.5, 25° C.
Procedure: as §3, §4

[10] = 10% acetonitrile, first experiment
[11] = 90% acetonitrile, first experiment
[12] = 90% acetonitrile, second experiment
[13] = 10% acetonitrile, first experiment, 1.6 mg/mL peptide
[14] = 10% acetonitrile, second experiment, 2.0 mg/mL peptide
[15] = 90% acetonitrile, first experiment, 1.6 mg/mL peptide
[16] = 90% acetonitrile, second experiment, 2.0 mg/mL peptide

Molecule | Total peptide concentration detectable in the NMR spectra [1] [%] | Amyloid fibril formation, EM ([2]; 10% acetonitrile) | Amyloid fibril formation, EM ([2]; 90% acetonitrile) | β structure content (CD) ([3]; 90% acetonitrile) [%] | Hydrodynamic Stokes radius [4] | Amyloid fibril formation, LM green birefringence [5, 10] | Amyloid fibril formation, LM green birefringence ([5]; 10% acetonitrile, second experiment) | Amyloid fibril formation, LM green birefringence [5, 11] | Amyloid fibril formation, LM green birefringence [5, 12] | Amyloid fibril formation, Congo Red [6, 13] | Amyloid fibril formation, Congo Red [6, 14] | Amyloid fibril formation, Congo Red [6, 15] | Amyloid fibril formation, Congo Red [6, 16] | β-sheet content (CD) ([3]; 2.5% acetonitrile) [%] | β-sheet content (CD) ([3]; 15 to 70% acetonitrile) [%] | β-sheet content (CD) ([3]; 97.5% acetonitrile) [%] | solubility [7] [µg/mL] | Congo Red birefringence under cross-polarised light ([8]; fibrils after two weeks of incubation) | Congo Red difference spectrum, maximum intensity ([8]; spectrum of aggregate plus dye minus aggregate alone and dye alone) [nm] | Increase of the 482 nm fluorescence (excitation 440 nm) of Thioflavin T [9]
CspB-1: peptide, residues 1-22 of B. subtilis cold shock protein CspB, corresponding to the first two β-strands (MLEGKVKWFNSEKGFGFIEVEG; UniProt P32081 1-22, looked up, fragment) | ~20 | ++ | 0 | ~70 | 1.60^a nm | ++, ++ | ++, ++ | ++, ++ | ++, ++ | ++, ++ | ++, ++ | ++ | 0 |  |  |  |  |  |  | 
MLEGKVKWFNSEKGFGFIEVEGQDDVFVHFSAIQG [CspB-2] |  | ++ | ++ |  | 1.68 nm | + |  | ++ | 0 | ++ | 0 | 0 | ++ | 100 | ~20 | 71.5 | ~200 |  |  | 
B1 |  |  |  |  |  |  |  |  |  |  |  |  |  |  |  |  |  | characteristic green birefringence | 540 | three fold increase
